Source: article PMC8134492

Target: MS2-Biotin, biotinylated single-chain MS2 coat protein dimer with an AviTag in a surface loop of the second monomer (bacteriophage MS2)
Test: SEC

Substance: streptavidin (from UniProt P22629 25-183) (natural protein)
- stoichiometry N (streptavidin molecules per VLP): 72
